According to patent US12139531B2, “Compositions and methods useful in promoting milk production” (The Regents of the University of California, priority 2019, dated 2024):
“Also recorded” adds a separate entry of the source.

T1: ROBO2 (Homo sapiens, UniProt Q9HCK4)
T1 construct: expressed in transfected cells; host or cells: Cos7
T1 sequence (Q9HCK4 22-1378): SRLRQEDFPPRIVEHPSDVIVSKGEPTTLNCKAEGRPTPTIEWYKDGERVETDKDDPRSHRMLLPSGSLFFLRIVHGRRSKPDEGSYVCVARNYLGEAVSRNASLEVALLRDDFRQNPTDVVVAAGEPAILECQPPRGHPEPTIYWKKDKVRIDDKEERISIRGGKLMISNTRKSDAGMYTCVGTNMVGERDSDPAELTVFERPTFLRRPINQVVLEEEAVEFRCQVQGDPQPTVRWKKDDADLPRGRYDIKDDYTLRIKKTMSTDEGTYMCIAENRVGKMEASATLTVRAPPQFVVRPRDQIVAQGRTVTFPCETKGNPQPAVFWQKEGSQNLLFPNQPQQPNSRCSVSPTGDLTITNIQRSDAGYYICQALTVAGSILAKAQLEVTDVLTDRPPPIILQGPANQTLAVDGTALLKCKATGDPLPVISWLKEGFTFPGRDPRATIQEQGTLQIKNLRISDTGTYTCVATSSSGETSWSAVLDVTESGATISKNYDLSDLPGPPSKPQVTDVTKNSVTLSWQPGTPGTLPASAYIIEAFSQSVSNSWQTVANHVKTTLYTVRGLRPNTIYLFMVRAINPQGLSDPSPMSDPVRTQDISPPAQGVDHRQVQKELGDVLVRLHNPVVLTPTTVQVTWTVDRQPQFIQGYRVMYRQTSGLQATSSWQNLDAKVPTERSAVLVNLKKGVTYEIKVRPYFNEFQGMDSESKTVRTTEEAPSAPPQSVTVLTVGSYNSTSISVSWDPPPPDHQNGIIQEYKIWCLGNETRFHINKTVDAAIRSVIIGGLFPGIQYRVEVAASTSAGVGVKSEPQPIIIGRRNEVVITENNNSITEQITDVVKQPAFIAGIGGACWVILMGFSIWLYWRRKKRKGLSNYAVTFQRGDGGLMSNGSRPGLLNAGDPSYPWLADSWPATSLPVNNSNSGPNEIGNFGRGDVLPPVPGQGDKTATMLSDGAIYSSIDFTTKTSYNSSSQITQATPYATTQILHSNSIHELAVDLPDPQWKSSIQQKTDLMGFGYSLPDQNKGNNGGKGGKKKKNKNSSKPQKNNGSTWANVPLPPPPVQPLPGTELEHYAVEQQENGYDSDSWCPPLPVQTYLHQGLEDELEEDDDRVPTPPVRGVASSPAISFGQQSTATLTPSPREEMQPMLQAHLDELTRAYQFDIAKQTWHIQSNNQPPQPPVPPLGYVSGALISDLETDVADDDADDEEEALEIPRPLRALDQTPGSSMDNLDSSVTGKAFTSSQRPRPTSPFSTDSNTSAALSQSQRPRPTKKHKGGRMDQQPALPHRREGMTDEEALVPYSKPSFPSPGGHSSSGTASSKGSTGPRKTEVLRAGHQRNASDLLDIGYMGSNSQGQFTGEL


Tests used:
DCC = target: T2, DCC (Homo sapiens, UniProt P43146); assay: ECD binding assay on cells overexpressing DCC
T2 construct: expressed in transfected cells
T2 sequence (P43146 26-1447, species assumed): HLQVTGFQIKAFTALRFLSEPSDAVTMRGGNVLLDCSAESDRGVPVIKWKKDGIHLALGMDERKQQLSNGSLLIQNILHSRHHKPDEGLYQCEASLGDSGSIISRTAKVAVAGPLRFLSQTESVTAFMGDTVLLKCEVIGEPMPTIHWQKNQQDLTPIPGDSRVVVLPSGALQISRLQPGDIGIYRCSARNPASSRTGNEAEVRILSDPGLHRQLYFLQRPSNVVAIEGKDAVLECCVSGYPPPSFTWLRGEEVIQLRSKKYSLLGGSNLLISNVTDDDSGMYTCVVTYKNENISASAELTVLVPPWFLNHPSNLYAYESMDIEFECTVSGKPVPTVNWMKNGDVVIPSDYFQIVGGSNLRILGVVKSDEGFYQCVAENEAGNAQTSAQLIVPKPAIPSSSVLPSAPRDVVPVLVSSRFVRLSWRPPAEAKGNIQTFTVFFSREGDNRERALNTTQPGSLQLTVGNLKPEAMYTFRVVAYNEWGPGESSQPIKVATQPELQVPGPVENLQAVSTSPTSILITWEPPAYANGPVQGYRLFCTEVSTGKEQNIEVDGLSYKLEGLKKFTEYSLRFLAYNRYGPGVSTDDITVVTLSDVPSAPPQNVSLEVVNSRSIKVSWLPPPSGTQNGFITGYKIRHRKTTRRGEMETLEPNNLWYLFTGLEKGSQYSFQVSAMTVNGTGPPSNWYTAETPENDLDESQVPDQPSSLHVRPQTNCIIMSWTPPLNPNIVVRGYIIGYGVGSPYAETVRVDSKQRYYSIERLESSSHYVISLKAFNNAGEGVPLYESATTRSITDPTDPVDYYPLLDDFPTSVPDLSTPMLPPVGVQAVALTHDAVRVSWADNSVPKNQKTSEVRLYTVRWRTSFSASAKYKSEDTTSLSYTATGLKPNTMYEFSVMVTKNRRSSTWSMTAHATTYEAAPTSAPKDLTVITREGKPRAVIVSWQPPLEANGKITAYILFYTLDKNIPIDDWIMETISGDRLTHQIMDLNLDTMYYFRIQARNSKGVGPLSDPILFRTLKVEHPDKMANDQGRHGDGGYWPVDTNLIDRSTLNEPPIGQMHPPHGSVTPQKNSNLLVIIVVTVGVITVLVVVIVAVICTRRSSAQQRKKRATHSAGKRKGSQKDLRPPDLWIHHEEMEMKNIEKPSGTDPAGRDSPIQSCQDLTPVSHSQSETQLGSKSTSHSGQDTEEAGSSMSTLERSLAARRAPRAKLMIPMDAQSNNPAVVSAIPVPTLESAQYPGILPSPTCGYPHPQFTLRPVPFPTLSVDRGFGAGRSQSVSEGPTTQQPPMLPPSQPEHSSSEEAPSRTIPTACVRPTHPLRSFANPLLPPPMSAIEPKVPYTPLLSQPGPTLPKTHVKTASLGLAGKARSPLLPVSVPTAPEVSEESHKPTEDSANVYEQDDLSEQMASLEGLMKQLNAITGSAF
Description: FIG. 6: ROBO1 extracellular domains. (A) Cartoon showing domain structure of the ROBO1 extracellular domain (ECD) panel (B) Western blot of ROBO1 ECDs and control DCC ECDs in lysates and conditioned media of HEK cells overexpressing plasmid constructs. (C) Dot blot assay of media (left) and quantification (right) of ROBO1-Ig5 secretion from HEK cells overexpressing Robo-Ig5 in the absence and presence of heparin (300 ng/ml). […] (F) ECD binding assay using ROBO1-Ecto and cells overexpressing ROBO2 (top, green) and cells overexpressing DCC (bottom, green). ROBO1-Ecto-HA (red) binds to ROBO2, but not to DCC.

ROBO2 = target: T1, ROBO2; assay: ECD binding assay on Cos7 cells overexpressing Robo2; details: Cos7 cells overexpressing Robo2, sodium azide, 1H incubation, immunostaining
Description: Soluble ROBO1 ECD fragments ROBO1-Ig2 and ROBO1-Ig5 generated in the presence of heparin were used in a dome assay. […] Because treatment with heparin had only a modest positive effect on ROBO1 ECD production and a deleterious effect on their function (FIG. 6C, E), the use of heparin to generate soluble ROBO1 ECD fragments was not pursued. The ability of a ROBO1 ECD fragment to bind ROBO2 receptors was tested by overexpressing Robo2 in Cos7 cells, treating cells with sodium azide to prevent protein internalization and then incubating cells with ROBO1-Ecto-HA 1H prior to fixation and immunostaining.

HC11 cells [1] = assay: HC11 dome assay (milk dome formation on differentiation in DIP media); type: cell-based, mouse; details: HC11 cells, increasing ECD concentration
Notch signaling = assay: RT-qPCR of Notch effector expression (Hey1, Hes1) in HC11 cells; type: cell-based, mouse; details: HC11 cells treated with ROBO1-ECD fragments
Description: To examine the effects of ROBO1-ECD fragments on Notch signaling, HC11 cells were treated with ROBO1-ECD fragments and Notch effector expression assessed. […] In addition, HC11 cells were treated with ROBO-Ig5 during differentiation. These cells were then fractionated and a Western blot performed to detect HES1 and NOTCH4-ICD (FIG. 8B).
Total RNA was harvested from cells lysed in TRIzol reagent (Invitrogen) and phase separated according to manufacturer's protocol with an additional overnight RNA precipitation stem in ethanol (Macias et al., 2011). The RNA was further purified with TURBO DNase (Ambion) treatment. Total RNA quality was analyzed by agarose gel electrophoresis and quantified with an ND-1000 spectrophotometer (NanoDrop). cDNA libraries were prepared from 1 μg of total RNA using iScript cDNA synthesis kit (BioRad). Quantitative RT-PCR was performed in triplicates using light Cycler 480 SYBR Green I Master (Roche) and quantified using BioRad CFX'Connect Real-Time System and CFX Manager software (BioRad). Results were normalized to GAPDH.

HC11 cells [2] = assay: Bodipy 493/503 neutral lipid staining of differentiated HC11 cells; type: cell-based, mouse; details: Bodipy493/503 staining
Description: To determine whether the ROBO1 ECD fragments influence NOTCH4 signaling, HC11 assays were performed to monitor dome formation using both phase contrast microscopy (FIG. 7A, B, top), and fluorescent microscopy using hydrophobic Bodipy493/503 that binds neutral lipids (FIG. 7A, B, bottom). Undifferentiated (Undif) cells are distinct with interconnecting processes visible in phase contrast and little/no Bodipy staining (FIG. 7A). Upon differentiation and prolactin treatment, small lipid droplets accumulate that appear as dark-rimmed circles in phase contrast (FIG. 7B, top) and as punctate green circles by Bodipy staining (FIG. 7B, bottom).
Place cells in a half-volume of buffer or media. Make a 2× solution (2 μg/ml=7.6 μM) of Invitrogen™ BODIPY™ 493/503 dye in 0.5 mL volume of the same pre-warmed buffer or media (no cells, no BSA or serum) and mix vigorously to mechanically emulsify this solution. Immediately add to the solution of cells, mix and incubate up to 30 min.

HC11 cells [3] = assay: Western blot analysis of WAP and PLIN2 in HC11 cells; type: cell-based, mouse; details: ECD titration
Description: To determine whether the promotion of dome formation also results in higher milk production, HC11 cells were differentiated in the presence or absence of ROBO1-ECD fragments that were added to cells simultaneously with DIP media. Cells were harvested and the expression of WAP and Lalba assessed by RT-qPCR. […] WAP expression levels were not increased in cells treated with DCC-Ig4 (FIG. 7K). Next, Western blot analysis of WAP and PLIN2 was performed on cells treated with ROBO1-Ig5 and ROBO1-Ecto.
Protein lysates were prepared by directly lysing adherent cells in 1× sample buffer supplemented with 5% beta-mercaptoethanol and boiled for 5 minutes. Protein lysate was resolved by SDS-PAGE and transferred to a PVDF for 90 minutes at 400 mA or overnight at 30 mA. Primary antibodies were used at the concentration indicated in Table 1 and incubated overnight at 4° C. HRP conjugated secondary antibodies (Jackson Labs) were used at 1:3000 and incubated for 45 minutes at room temp. All proteins were detected using Clarity ECL (BioRad) using a BioRad Chemi-Doc MP Imager and quantified using ImageLab software as previously described a.

binding to DCC (DCC) | binding to ROBO2 (ROBO2) | Molecule | dome formation in response to a titration of ECD fragments (HC11 cells [1]) | Hes1 expression (Notch signaling) | Hey1 expression (Notch signaling) | number of cells completely surrounded by lipid droplets (HC11 cells [2]) | PLIN2 protein expression (HC11 cells [3]) | WAP protein expression (HC11 cells [3])
not to DCC | binds | ROBO1-Ecto-HA: ROBO1-Ecto fused to HA (hemagglutinin) tag (protein, left off: small tags and cut ends, ROBO1-Ecto fused to HA (hemagglutinin) tag) SRLRQEDFPPRIVEHPSDLIVSKGEPATLNCKAEGRPTPTIEWYKGGERVETDKDDPRSHRMLLPSGSLFFLRIVHGRKSRPDEGVYICVARNYLGEAVSHNASLEVAILRDDFRQNPSDVMVAVGEPAVMECQPPRGHPEPTISWKKDGSPLDDKDERITIRGGKLMITYTRKSDAGKYVCVGTNMVGERESEVAELTVLERPSFVKRPSNLAVTVDDSAEFKCEARGDPVPTVRWRKDDGELPKSRYEIRDDHTLKIRKVTAGDMGSYTCVAENMVGKAEASATLTVQEPPHFVVKPRDQVVALGRTVTFQCEATGNPQPAIFWRREGSQNLLFSYQPPQSSSRFSVSQTGDLTVTNVQRSDVGYYICQTLNVAGSIITKAYLEVTDVIADRPPPVIRQGPVNQTVAVDGTLTLSCVATGSPVPTILWRKDGVLVSTQDSRIKQLESGVLQIRYAKLGDTGRYTCTASTPSGEATWSAYIEVQEFGVPVQPPRPTDPNLIPSAPSKPEVTDVSKNTVTLLWQPNLNSGATPTSYIIEAFSHASGSSWQTVAENVKTETFAIKGLKPNAIYLFLVRAANAYGISDPSQISDPVKTQDVPPTTQGVDHKQVQRELGNVVLHLHNPTILSSSSVEVHWTVDQQSQYIQGYKILYRPSGASHGESEWLVFEVRTPTKNSVVIPDLRKGVNYEIKARPFFNEFQGADSEIKFAKTLEEAPSAPPRSVTVSKNDGNGTAILVTWQPPPEDTQNGMVQEYKVWCLGNETRYHINKTVDGSTFSVVIPSLVPGIRYSVEVAASTGAGPGVKSEPQF | – | – | – | – | – | –
– | – | ROBO1-Ecto: recombinant soluble ROBO1 construct comprising the entire extracellular domain (protein, left off: small tags and cut ends, recombinant soluble ROBO1 construct comprising the entire extracellular domain) SRLRQEDFPPRIVEHPSDLIVSKGEPATLNCKAEGRPTPTIEWYKGGERVETDKDDPRSHRMLLPSGSLFFLRIVHGRKSRPDEGVYICVARNYLGEAVSHNASLEVAILRDDFRQNPSDVMVAVGEPAVMECQPPRGHPEPTISWKKDGSPLDDKDERITIRGGKLMITYTRKSDAGKYVCVGTNMVGERESEVAELTVLERPSFVKRPSNLAVTVDDSAEFKCEARGDPVPTVRWRKDDGELPKSRYEIRDDHTLKIRKVTAGDMGSYTCVAENMVGKAEASATLTVQEPPHFVVKPRDQVVALGRTVTFQCEATGNPQPAIFWRREGSQNLLFSYQPPQSSSRFSVSQTGDLTVTNVQRSDVGYYICQTLNVAGSIITKAYLEVTDVIADRPPPVIRQGPVNQTVAVDGTLTLSCVATGSPVPTILWRKDGVLVSTQDSRIKQLESGVLQIRYAKLGDTGRYTCTASTPSGEATWSAYIEVQEFGVPVQPPRPTDPNLIPSAPSKPEVTDVSKNTVTLLWQPNLNSGATPTSYIIEAFSHASGSSWQTVAENVKTETFAIKGLKPNAIYLFLVRAANAYGISDPSQISDPVKTQDVPPTTQGVDHKQVQRELGNVVLHLHNPTILSSSSVEVHWTVDQQSQYIQGYKILYRPSGASHGESEWLVFEVRTPTKNSVVIPDLRKGVNYEIKARPFFNEFQGADSEIKFAKTLEEAPSAPPRSVTVSKNDGNGTAILVTWQPPPEDTQNGMVQEYKVWCLGNETRYHINKTVDGSTFSVVIPSLVPGIRYSVEVAASTGAGPGVKSEPQF | higher rates of dome formation | lower expression; also recorded: decreased | lower expression; also recorded: decreased | higher number of cells completely surrounded by lipid droplets | approximately two-fold; also recorded: increased | approximately two-fold; also recorded: increased
